According to US20260234660A1, “TREATMENT OF MUSCLE RELATED DISORDERS WITH ANTI-HUMAN CACNG1 ANTIBODIES” (Regeneron Pharmaceuticals, Inc., priority 2023, published 2026):

Columns and labels:
[1] = target: human CACNG1, cell surface-expressed (human) (UniProt Q06432)
[2] = target: human CACNG1, cell surface-expressed (human) (UniProt Q06432); remark: listed apart in the source
[3] = target: human CACNG1, cell surface-expressed (human) (UniProt Q06432); remark: listed apart in the source

human CACNG1, cell surface-expressed (human), sequence (Q06432 whole entry): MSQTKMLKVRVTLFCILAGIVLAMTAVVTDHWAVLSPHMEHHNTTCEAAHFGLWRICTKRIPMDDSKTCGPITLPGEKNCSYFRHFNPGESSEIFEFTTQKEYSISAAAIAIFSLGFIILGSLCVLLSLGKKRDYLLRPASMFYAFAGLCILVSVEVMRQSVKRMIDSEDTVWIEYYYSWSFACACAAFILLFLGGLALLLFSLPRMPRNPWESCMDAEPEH

- EC50; androgen receptor luciferase reporter (RLU), hCACNG1.AR.Luc LNCaP cells, 48 hours [1]: 6.95 nM
- EC50; androgen receptor luciferase reporter (RLU), hCACNG1.AR.Luc LNCaP cells, 24 hours [2]: 7.83 nM
- EC50; androgen receptor luciferase reporter (RLU), hCACNG1.AR.Luc LNCaP cells, 72 hours [3]: 5.44 nM
B1: REGN14571-M3004 (antibody, from a related filing, V domains shown, part only)
VH: QVQLQESGPGLVKPSETLSLTCTVSGDSINNYYWTWLRQPPGKGLEWIGYIYYSGSANYNPSLKSRVTISVDTSKNQFSLKLNSVTAADTAVYYCARGAVKYFRHWGQGTLVTVSS
VL: EIVLTQSPGTLSLSPGERATLSCRASQTINHNNLAWYQQRPGQAPRLLIYGASNRATAIPDRFSGSGSGTDFTLTISRLEPEDFEVYSCQQYGSLPLTFGGGTKVEIKR
